Data reported in paper PMC6823927.
Non-standard residues stand in square brackets, D forms with d. No end group written: not given here. Dip = N[C@H](C(=O)O)C(c1ccccc1)c1ccccc1

Columns and labels:
[1] = target: 175Cys-IgG1 (meditope-enabled trastuzumab IgG1 with Ala175 of the heavy chain changed to cysteine); assay: disulfide conjugation, dye-antibody ratio
[2] = target: 175Cys-Fab (meditope-enabled trastuzumab Fab with Ala175 of the heavy chain changed to cysteine); assay: cross-linking

A stoichiometry N [1] of 1.8 dyes per IgG was found for SQFD[Dip]CTRRLQSGGSK-Alexa647 [SQFDA(Ph)2…-Alexa647 meditope] in this work.

A stoichiometry N (meditope per Fab) [2] of 1 was found for SQFD[Dip]CTRRLQSGGSK [SQFDA(Ph)2… meditope] in this work.
